Tests used:
Experiment in all cases: SPR, antibody captured, C2 as analyte;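 also: biacore at 37 °C, anti-C2 mAbs held by immobilised goat anti-human IgG, C2 alanine or serine mutants injected, double-referenced sensorgrams fitted to a 1:1 kinetic or steady-state model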
human C2 S456A = biological target: T1, human C2 S456A (human, UniProt P06681 21-752)
T1 sequence: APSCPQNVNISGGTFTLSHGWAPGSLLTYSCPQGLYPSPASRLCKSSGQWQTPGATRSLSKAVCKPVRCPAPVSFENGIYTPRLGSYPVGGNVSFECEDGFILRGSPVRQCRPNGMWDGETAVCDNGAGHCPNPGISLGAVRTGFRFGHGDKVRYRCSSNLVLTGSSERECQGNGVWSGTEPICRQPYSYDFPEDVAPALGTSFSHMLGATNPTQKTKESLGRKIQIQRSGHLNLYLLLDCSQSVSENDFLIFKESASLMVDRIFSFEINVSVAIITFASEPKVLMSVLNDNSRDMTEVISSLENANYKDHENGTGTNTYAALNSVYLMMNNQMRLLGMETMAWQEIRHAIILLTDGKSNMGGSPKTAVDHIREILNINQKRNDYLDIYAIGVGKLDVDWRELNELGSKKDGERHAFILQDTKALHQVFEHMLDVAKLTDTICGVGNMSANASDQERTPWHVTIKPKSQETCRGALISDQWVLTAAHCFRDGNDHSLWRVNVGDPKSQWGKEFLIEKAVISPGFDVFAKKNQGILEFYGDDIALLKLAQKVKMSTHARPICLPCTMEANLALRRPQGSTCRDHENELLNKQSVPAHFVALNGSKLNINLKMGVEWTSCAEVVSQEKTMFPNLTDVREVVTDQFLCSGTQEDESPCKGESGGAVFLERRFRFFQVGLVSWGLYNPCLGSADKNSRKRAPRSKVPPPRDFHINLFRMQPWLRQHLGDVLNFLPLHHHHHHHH

human C2 I320A = biological target: T2, human C2 I320A (human, UniProt P06681 21-752)
T2 sequence: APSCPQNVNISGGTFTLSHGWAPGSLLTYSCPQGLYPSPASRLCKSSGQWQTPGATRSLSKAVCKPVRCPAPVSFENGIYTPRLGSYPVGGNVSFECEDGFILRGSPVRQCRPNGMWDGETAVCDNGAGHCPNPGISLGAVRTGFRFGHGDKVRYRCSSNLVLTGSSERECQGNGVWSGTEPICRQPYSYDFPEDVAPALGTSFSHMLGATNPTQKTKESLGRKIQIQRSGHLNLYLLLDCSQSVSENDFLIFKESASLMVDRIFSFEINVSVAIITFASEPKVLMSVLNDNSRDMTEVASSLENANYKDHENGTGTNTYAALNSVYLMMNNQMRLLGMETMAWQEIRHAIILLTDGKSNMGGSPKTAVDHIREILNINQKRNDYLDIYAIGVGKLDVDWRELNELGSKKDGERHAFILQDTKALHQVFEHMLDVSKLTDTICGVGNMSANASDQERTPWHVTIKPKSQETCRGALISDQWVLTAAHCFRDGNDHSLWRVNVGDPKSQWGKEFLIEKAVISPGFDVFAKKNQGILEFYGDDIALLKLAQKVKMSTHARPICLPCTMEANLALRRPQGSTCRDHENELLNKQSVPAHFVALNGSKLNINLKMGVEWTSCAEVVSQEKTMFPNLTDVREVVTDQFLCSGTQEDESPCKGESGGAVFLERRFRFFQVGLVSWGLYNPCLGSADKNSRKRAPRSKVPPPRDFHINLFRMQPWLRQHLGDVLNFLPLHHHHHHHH

human C2 N471A = biological target: T3, human C2 N471A (human, UniProt P06681 21-752)
T3 sequence: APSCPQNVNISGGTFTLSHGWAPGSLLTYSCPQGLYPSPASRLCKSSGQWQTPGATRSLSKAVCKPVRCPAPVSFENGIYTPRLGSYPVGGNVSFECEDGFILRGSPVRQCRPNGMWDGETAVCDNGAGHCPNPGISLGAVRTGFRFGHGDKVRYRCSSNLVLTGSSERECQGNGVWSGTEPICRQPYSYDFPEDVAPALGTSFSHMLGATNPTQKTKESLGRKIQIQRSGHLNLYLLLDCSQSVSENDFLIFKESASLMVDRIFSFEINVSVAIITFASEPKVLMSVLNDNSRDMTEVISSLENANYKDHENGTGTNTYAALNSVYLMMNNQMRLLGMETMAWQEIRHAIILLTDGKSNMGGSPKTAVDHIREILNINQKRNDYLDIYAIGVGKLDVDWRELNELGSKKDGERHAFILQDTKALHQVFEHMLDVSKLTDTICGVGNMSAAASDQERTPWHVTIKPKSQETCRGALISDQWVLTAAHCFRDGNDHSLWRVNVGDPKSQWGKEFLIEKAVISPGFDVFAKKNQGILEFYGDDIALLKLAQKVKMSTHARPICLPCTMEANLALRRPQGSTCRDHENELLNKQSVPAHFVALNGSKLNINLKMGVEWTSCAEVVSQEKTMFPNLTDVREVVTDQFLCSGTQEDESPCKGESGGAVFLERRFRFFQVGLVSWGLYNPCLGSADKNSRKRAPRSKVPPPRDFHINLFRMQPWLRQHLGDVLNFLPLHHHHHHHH

human C2 K430A = biological target: T4, human C2 K430A (human, UniProt P06681 21-752)
T4 sequence: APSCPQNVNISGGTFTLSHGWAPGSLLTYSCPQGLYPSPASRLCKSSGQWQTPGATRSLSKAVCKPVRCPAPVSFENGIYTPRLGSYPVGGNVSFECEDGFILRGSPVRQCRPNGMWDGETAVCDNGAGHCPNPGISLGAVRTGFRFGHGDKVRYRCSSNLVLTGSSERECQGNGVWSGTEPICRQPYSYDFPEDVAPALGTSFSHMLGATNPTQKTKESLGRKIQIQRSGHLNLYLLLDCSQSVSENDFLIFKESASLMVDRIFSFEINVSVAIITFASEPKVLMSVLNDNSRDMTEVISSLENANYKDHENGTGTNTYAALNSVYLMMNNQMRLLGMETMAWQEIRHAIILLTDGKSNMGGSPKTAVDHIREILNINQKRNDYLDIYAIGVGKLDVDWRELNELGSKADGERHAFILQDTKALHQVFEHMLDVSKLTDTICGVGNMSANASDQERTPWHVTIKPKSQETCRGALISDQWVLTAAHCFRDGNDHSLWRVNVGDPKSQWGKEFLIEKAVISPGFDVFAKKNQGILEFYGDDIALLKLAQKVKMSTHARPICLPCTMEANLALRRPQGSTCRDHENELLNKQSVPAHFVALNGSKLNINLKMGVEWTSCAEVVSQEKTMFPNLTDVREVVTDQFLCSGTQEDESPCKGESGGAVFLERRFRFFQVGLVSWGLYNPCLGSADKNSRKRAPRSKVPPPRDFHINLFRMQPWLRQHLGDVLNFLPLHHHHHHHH

B1: RF16-242 (antibody, human IgG4 S228P, lambda, V domains shown)
VH: EVQLLQSGAEVKKPGESLKISCKGSGYSFTSYWIGWVRQMPGKGLEWMGIIYPGDSDTRYSPSFQGQVTISADKSISTAYLQWSSLKASDTAMYYCARRGHYGDYFDYWGQGTLVTVSS
VL: SYELTQPPSVSVSPGQTARITCSGDALPKKYAYWYHQKSGQAPVLVIYEDRRRPSEIPERFSGSSSGTMATLTITGAQVEDEGVYFCYSRDRAGNQRVFGGGTQLTVLG
notes: pH-dependent anti-C2 antibody from a phage display library
Q: What does the source list for B1?
A: Kd (human C2 S456A): 59.8 nM; Kd (human C2 I320A): 73.5 nM; Kd (human C2 N471A): 9.2 nM; Kd (human C2 K430A): 91 nM

From US20220332804A1 (CSL INNOVATION, published 2022)
